Measurements from the supplement of paper PMC6755084.

B1: F1*; the commonest letter at each place (parent)
chain: GAGACCGCAACTGAAAAGTTGTTATCACTTGTCGTAAGACACTTTGGATGGGTTGAAGTTCTGCACGTAGAAGCAAAAGGC

Variants of: B1
Assay: fraction ligated after 30 min (ligated reads / total reads); higher = more ligase activity
Details: with F1*sub RNA substrate (template-directed ligation), 42 °C
How it was run: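 The ligase ribozyme variants were produced by PCR amplification of oligo-pool templates, T7 transcription and purification on gel. Their ligated and unligated forms were gel-separated, then reverse transcribed with barcoded primers before MiSeq sequencing. Core bases were filtered at a quality of ≥20, and fraction ligated per variant was ligated reads over total reads.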

Variant | fraction ligated
T44G T45G | 0.35
T44G T45C | 0.797
T44G T45A | 0.769
T43C T49G | 0.665
T43C T49C | 0.427
T43C T49A | 0.638
T43A G55T | 0.839
T43A G55C | 0.724
G46T A57C | 0.726
G46T A57T | 0.754
G46T A57G | 0.795
T43C T45C | 0.584
T43C T45G | 0.257
T43C T45A | 0.574
T45G G46C | 0.0668
T45G G46T | 0.246
T45G G46A | 0.032
T44C T49G | 0.772
T44C T49C | 0.494
T44C T49A | 0.737
T44G T49G | 0.714
T44G T49C | 0.183
T44G T49A | 0.584
G46C G50A | 0.0524

Variant | fraction ligated
G46C G50C | 0.0426
G46C G50T | 0.165
T44G A57C | 0.816
T44G A57G | 0.791
T44G A57T | 0.857
T44A T45A | 0.762
T44A T45C | 0.8
T44A T45G | 0.187
T43G G47A | 0.802
T43G G47T | 0.52
T43G G47C | 0.447
G47C A57T | 0.0788
G47C A57G | 0.0599
G47C A57C | 0.0685
G46C G47T | 0.0897
G46C G47A | 0.798
G46C G47C | 0.0992
T45A A48T | 0.0749
T45A A48G | 0.261
T45A A48C | 0.23
T43G T44A | 0.808
T43G T44G | 0.809
T43G T44C | 0.809
T44C G50A | 0.406

Variant | fraction ligated
T44C G50T | 0.691
T44C G50C | 0.224
G46T A56G | 0.187
G46T A56C | 0.136
G46T A56T | 0.237
G47C T49A | 0.0759
G47C A56C | 0.0635
G47C A56T | 0.0769
G47C A56G | 0.0569
T45C T49A | 0.0409
T45C T49C | 0.0485
T45C T49G | 0.0625
G46A A57G | 0.799
G46A A57T | 0.803
G46A A57C | 0.793
T44A G50T | 0.758
T44A G50A | 0.643
T44A G50C | 0.442
T43A T45G | 0.43
T43A T45A | 0.725
T43A T45C | 0.696
G46C A56T | 0.447
G46C A56G | 0.315
G46C A56C | 0.324

Variant | fraction ligated
T45C G55T | 0.134
T45C G55A | 0.521
T45C G55C | 0.0438
G46T G50T | 0.148
G46T G50C | 0.0286
G46T G50A | 0.0502
T45G A57C | 0.791
T45G A57T | 0.8
T45G A57G | 0.769
T43A T49C | 0.605
T43A T49G | 0.797
T43A T49A | 0.743
T44A G47C | 0.117
T44A G47A | 0.773
T44A G47T | 0.55
G46C G55A | 0.804
G46C G55T | 0.674
G46C G55C | 0.171
T43G G46A | 0.808
T43G G46T | 0.787
T43G G46C | 0.783
T43C A48G | 0.764
T43C A48T | 0.668
T43C A48C | 0.723

Variant | fraction ligated
T43G A56T | 0.764
T43G A56G | 0.717
T43G A56C | 0.713
T44A | 0.849
T44G | 0.844
T44C | 0.837
G46A G55T | 0.783
G46A G55C | 0.224
G46A G55A | 0.786
T44G A56G | 0.752
T44G A56T | 0.809
T44G A56C | 0.775
T45C G46C | 0.268
T45C G46A | 0.127
T45C G46T | 0.263
G46T G47A | 0.769
G46T G47C | 0.0107
G46T G47T | 0.0382
T44C G55T | 0.779
T44C G55A | 0.815
T44C G55C | 0.754
G46A T49G | 0.627
G46A T49A | 0.501
G46A T49C | 0.38

Variant | fraction ligated
G46C | 0.804
G46A | 0.812
G46T | 0.791
T45A G47C | 0.217
T45A G47T | 0.205
T45A G47A | 0.478
G47A A48T | 0.803
G47A A48G | 0.61
G47A A48C | 0.723
T43C G47C | 0.276
T43C G47T | 0.446
T43C G47A | 0.767
G46A A48T | 0.0714
G46A A48G | 0.609
G46A A48C | 0.675
G46T A48G | 0.352
G46T A48C | 0.127
G46T A48T | 0.144
G47A G50A | 0.381
G47A G50T | 0.657
G47A G50C | 0.386
T45G A56T | 0.79
T45G A56G | 0.775
T45G A56C | 0.187

Variant | fraction ligated
T43C T44A | 0.833
T43C T44G | 0.836
T43C T44C | 0.781
T45C A48C | 0.112
T45C A48T | 0.00623
T45C A48G | 0.0929
T45C G47T | 0.379
T45C G47C | 0.31
T45C G47A | 0.366
G46A A56G | 0.487
G46A A56C | 0.483
G46A A56T | 0.645
T43G T45G | 0.0141
T43G T45A | 0.763
T43G T45C | 0.319
T44C G47A | 0.772
T44C G47T | 0.152
T44C G47C | 0.0629
T43G A57G | 0.803
T43G A57T | 0.799
T43G A57C | 0.809
T45A T49G | 0.0993
T45A T49A | 0.0341
